Laboratory results: paper PMC4663627

Molecular target: T1, p19 (GST-p19) (Cymbidium ringspot virus (CymRSV)) (UniProt P17457)
T1 sequence: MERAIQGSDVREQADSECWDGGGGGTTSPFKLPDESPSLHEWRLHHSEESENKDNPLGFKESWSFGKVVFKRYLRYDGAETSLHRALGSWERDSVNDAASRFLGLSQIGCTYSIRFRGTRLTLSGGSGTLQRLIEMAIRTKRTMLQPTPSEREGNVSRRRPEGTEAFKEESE
Test: SiNW-FET conductance, Langmuir fit
Settings: phosphate solution (240 uM NaH2PO4, 760 uM Na2HPO4), pH 7.4, Debye length 6.1 nm, temperature not given

Sequence: CGUACGCGGAAUACUUCGAUU / UCGAAGUAUUCCGCGUACGUU [ds-sRNA-0]
- Kd (5'-phosphate): 16 nM

Sequence: GCGACGCGGAAUACUUCGAUU / UCGAAGUAUUCCGCGUACGUU [ds-sRNA-2]
- Kd: 227 nM

Sequence: GCGACGCGGAAUACUUGCUUU / UCGAAGUAUUCCGCGUACGUU [ds-sRNA-3]
- Kd: 1140 nM
